The target in the assay is Nicotianalisin (Nicotiana benthamiana subtilisin-like serine protease) (Nicotiana benthamiana). Put plainly: cell-based or functional assay.
Sequence of Nicotianalisin (Nicotiana benthamiana subtilisin-like serine protease) (Nicotiana benthamiana) (chain, as listed by the source limits assumed): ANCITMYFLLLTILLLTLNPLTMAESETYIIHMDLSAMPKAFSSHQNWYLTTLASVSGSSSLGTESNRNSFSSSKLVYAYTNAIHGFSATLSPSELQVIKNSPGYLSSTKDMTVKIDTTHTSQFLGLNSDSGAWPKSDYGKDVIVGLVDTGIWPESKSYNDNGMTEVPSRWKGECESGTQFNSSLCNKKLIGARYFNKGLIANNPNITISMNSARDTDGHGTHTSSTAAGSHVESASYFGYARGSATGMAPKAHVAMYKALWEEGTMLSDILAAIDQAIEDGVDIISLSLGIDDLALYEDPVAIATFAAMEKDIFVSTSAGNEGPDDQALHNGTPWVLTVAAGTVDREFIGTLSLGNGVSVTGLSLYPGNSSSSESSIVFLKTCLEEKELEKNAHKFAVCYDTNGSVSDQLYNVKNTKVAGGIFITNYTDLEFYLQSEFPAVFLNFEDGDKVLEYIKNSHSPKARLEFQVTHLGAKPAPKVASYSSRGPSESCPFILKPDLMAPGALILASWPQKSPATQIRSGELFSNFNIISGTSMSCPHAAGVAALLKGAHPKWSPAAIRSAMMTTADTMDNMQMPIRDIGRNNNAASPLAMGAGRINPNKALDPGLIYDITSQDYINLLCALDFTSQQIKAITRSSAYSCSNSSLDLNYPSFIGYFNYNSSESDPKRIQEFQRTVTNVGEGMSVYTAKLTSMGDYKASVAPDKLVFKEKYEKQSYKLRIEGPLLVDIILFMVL
Regarding pI-II, the % Inhibition of protease activity in IF (hydrolysis of 0.3 mM N-Suc-AAPL-p-NA after 30 min with inhibitor at 24 C) stood at 2%.

Take Chymostatin (peptide): the % Inhibition of protease activity in IF (hydrolysis of 0.3 mM N-Suc-AAPL-p-NA after 30 min with inhibitor at 24 C) amounted to 100%.

Regarding Pepstatin A (peptide), the % Inhibition of protease activity in IF (hydrolysis of 0.3 mM N-Suc-AAPL-p-NA after 30 min with inhibitor at 24 C) came out at 6%.

On to potato protease inhibitor I, for which the % Inhibition of protease activity in IF (hydrolysis of 0.3 mM N-Suc-AAPL-p-NA after 30 min with inhibitor at 24 C) came out at 30%.

In the case of Amastatin (peptide), the % Inhibition of protease activity in IF (hydrolysis of 0.3 mM N-Suc-AAPL-p-NA after 30 min with inhibitor at 24 C) came to 5%.

Consider Cystain, for which the % Inhibition of protease activity in IF (hydrolysis of 0.3 mM N-Suc-AAPL-p-NA after 30 min with inhibitor at 24 C) was 2%.

Take Elastinal (peptide): the % Inhibition of protease activity in IF (hydrolysis of 0.3 mM N-Suc-AAPL-p-NA after 30 min with inhibitor at 24 C) was found to be 41%.

Substance Antipain (peptide) registered a % Inhibition of protease activity in IF (hydrolysis of 0.3 mM N-Suc-AAPL-p-NA after 30 min with inhibitor at 24 C) of 77%.

For the substance Leupeptin (peptide), the % Inhibition of protease activity in IF (hydrolysis of 0.3 mM N-Suc-AAPL-p-NA after 30 min with inhibitor at 24 C) was found to be 18%.

For the origin of these results see patent US20040106198A1, “Inhibition of peptide cleavage in plants” (LARGE SCALE BIOLOGY CORPORATION, priority 2002, published 2004).
